In one experiment the test system is A. thaliana. Description: Seed germination of A. thaliana transformants on ½ MS media containing herbicides. It is filed as in vivo, Arabidopsis thaliana. As to conditions: T3 lines; 25 μM glufosinate, 25 μM glufosinate+70 nM tiafenacil, or 25 μM glufosinate+30 nM tiafenacil+40 nM saflufenacil; 7 days after sowing. The text has this:
T3 generation seeds of each transformant were sown in ½ MS media containing herbicides. Col-0 ecotype (wild type Arabidopsis) seeds were used as a control. The kinds of herbicides and concentration are as follows:
In FIGS. 31a to 31c, 10-3 refers to CyPPO10 wild type, 10FM-4-7 to the CyPPO10 F360M transgenic line, 10FL-1-9 to the CyPPO10 F360L transgenic line, 10FC-3-5 to the CyPPO10 F360C transgenic line, 10AC-5-4 to the CyPPO10 A167C transgenic line, 13-1 to CyPPO13 wild type, 13FM-3-1 to the CyPPO13 F373M transgenic line, 13FC-1-1 to the CyPPO13 F373C transgenic line, 13FI-2-1 to the CyPPO13 F373I transgenic line, 13AC-1-3 to the CyPPO13 A177C transgenic line, CyPPO13_ALFL to the CyPPO13 A177L+F373L transgenic line, and CyPPO13_ALFI to the CyPPO13 A177L+F373I transgenic line, respectively.

The subject of the next experiment is CyPPO10. In words: PPO enzyme activity and IC50 by herbicides, CyPPO10 wild type and variants (MBP-PPO fusion). It is filed as biochemical, Thermosynechococcus elongatus BP-1. Conditions: PPO enzyme activity of CyPPO10 protein, wild type = 100. The procedure:
The enzyme activities of PPO protein and PPO protein variants were examined, and inhibition assay by PPO-inhibiting herbicides was conducted. It was confirmed that the PPO protein has low water-solubility, but in case of being expressed as a fusion protein with MBP (maltose binding protein) (MBP-PPO), the PPO protein is able to be stably expressed as water-soluble form. Therefore, the wild type and variant proteins which were expressed in the form of fusion protein with MBP were used in the present test (refer to FIG. 4).
In order to express wild type genes and mutant genes of CyPPO10 and CyPPO13 (refer to Example 1 and Example 4), those genes were introduced to pMAL-c2X vector (refer to FIG. 5) respectively, and then cloned to BL21 (DE3) E. coli (CodonPlus).
The enzyme activity of the purified wild type protein and variant proteins of CyPPO10 and CyPPO13 was measured by the following process.
At first, a substrate of PPO protein, Protoporphyrinogen IX was synthesized. This process was performed in the space where nitrogen gas is streamed. 6 mg of protoporphyrin IX was dissolved in 20% (v/v) EtOH 20 ml, and stirred under dark condition for 30 minutes. The obtained protoporphyrinogen IX solution was put into a 15 ml screw tube in an amount of 800 and flushed with nitrogen gas for 5 minutes. To this, 1 g of sodium amalgam was added and vigorous shaking was performed for 2 minutes. The lid was open to exhaust hydrogen gas in the tube. Thereafter, the lid was closed and incubated for 3 minutes. The […] was filtered using syringe and cellulose membrane filter. To 600 μl of the obtained […], 2M MOPS [3-(N-morpholino)propanesulfonic acid] was added in an amount of approximately 300 thereby adjusting pH to 8.0. To determine the enzyme activity of PPO protein, a reaction mixture was prepared with the following composition (based on 10 ml): 50 mM Tris-Cl (pH 8.0); 50 mM NaCl; 0.04% (v/v) Tween 20; 40 mM glucose (0.072 g); 5 units glucose oxidase (16.6 mg); and 10 units catalase (1 μl).
Two hundred microliters (200 μl) of reaction mixture containing a purified PPO protein were placed in 96 well plates, and preincubated for 30 min at room temperature to reduce the oxygen concentration by the reaction of glucose oxidase-catalase. The mineral oil was layered and then the reaction was initiated by adding the substrate, […], to a final concentration of 50 μM. The reaction proceeded at room temperature for 30 min and the fluorescence of protoporphyrin IX was measured using Microplate reader (Sense, Hidex) (excitation: 405 nm; emission: 633 nm). To calculate the PPO enzyme activity, protoporphyrinogen IX solution was kept open in the air to oxidize the solution (overnight). To this, 2.7N HCl was added, and the absorbance at 408 nm was measured. A standard curve was generated using standard protoporphyrin IX, and the PPO activity was measured by calibration of protoporphyrin IX using the standard curve of protoporphyrin IX.
The final concentration of each herbicide was as follows: […]

The subject of experiment [1] is PPO-deficient BT3 E. coli (ΔPPO). Description: Herbicide tolerance of PPO-deficient BT3 E. coli transformed with CyPPO10/CyPPO13 wild type or mutant genes on herbicide-containing LB agar. Type of experiment: cell-based. Set-up: key: the level of herbicide tolerance of the wild type was represented by “−”; if higher, adding “+” to the max “+++++”; if higher, adding “+” to the max “+++++”; if higher, adding “+” to the max “+++++”; if higher, adding “+” to the max “+++++”; if higher, adding “+” to the max “+++++”. As to conditions: BT3 E. coli with CyPPO10 gene; relative to CyPPO10 wild type. An excerpt: In order to enhance PPO-inhibiting herbicide tolerance of CyPPO10 and CyPPO13, the amino acids interacting with herbicide, as identified in the Example 3, were mutated. After PPO-deficient BT3 E. coli (ΔPPO) was transformed with a PPO gene having such mutation, and then cultured with PPO-inhibiting herbicide, to observe the growth of transformed E. coli, as follows:
The pET303-CyPPO10 or pET303-CyPPO13 plasmids prepared in the Example 4, and plasmids containing each mutant gene, were transformed into BT3 competent cell by a heat shock method, and cultured in a LB agar medium containing ampicillin (100 μg/ml).
For seed culture of BT3 transformants, a single colony thereof was cultured in 3 ml of LB broth (LPSS) containing ampicillin for 12 hours or more, and 50˜100 μl of the cultured solution was further cultured until absorbance (OD600) reaches 0.5 to 1. Then, the obtained cultured solution was diluted with LB broth to adjust absorbance (OD600) to 0.5, and was diluted again 5 times by a factor of one tenth with LB broth.
LB (25 g/L), Bacto agar (12 g/L), ampicillin (100 μg/ml) and various herbicides (0˜200 μM) were mixed, to prepare herbicide-containing media.
Ten microliters of the diluted solution were dropped on the herbicide-containing media, and the media were incubated with light for 16-20 hours at 37° C. The growth level and PPO-inhibiting herbicide tolerance of BT3 transformed with each gene were evaluated.
The herbicide tolerance was evaluated relatively compared to CyPPO wild type, and shown in following Tables 8 to 11 and FIGS. 11 to 29:
In the Tables 8 to 11, the level of herbicide tolerance of the wild type was represented by “−”, and the level of herbicide tolerance was graduated by representing the equal level of tolerance by “−”, and if higher, adding “+” to the max “+++++”.
FIGS. 11 to 19 (wild type and variants of CyPPO10) and FIGS. 20 to 29 (wild type and variants of CyPPO13) show the results of culturing E. coli transformed with CyPPO genes (wild type and variant type), and the concentration described on the top is concentration of herbicide treated. Six columns of each concentration were sequentially diluted 5 times by a factor of one tenth with the E. coli culture solution to the right, and the most left column is the result of E. coli culture solution OD600=0.5.

B1: CyPPO10 F360M: CyPPO10 (SEQ ID NO: 2) PPO variant (protein)
chain: MIEVDVAIVGGGLSGLSVAWRLQRSAPHYSGVLLEASDRLGGNITTQAAEGFVWELGPNSFAPTPALLQLIAEVGLHSELIRGDRHLPRYIYWRGELYPLEPTRPLALATSNLLSPWGKVRAALGALGFVPPYLGSGDESVDSFFRRHLGQEVAERLVAPFVSGVYAGDPQQLSAAAAFRRIAQLEKLGGSLIAGALRLRRQQPPQPKPPAQVQMRPGELGSFREGLAALPRAIAQQLKAPLHLQTPVEAITPEPKGGYLLRSGEQTWHARSVVLATPAYQTAELVAPFQPAIARALATIPYPTVACVVLAYPAGLGRSVRPGFGVLVPRGQGIRTLGTIWSSCLFPQRTPAGWQVFTSMIGGATDPDLASLREEAIVEQVQQDLTRLLDLPAAKARLLGMKVWRRAIPQYIVGYPQQWQQVTHALTQTPGLFLCSNYAEGVALGDRVEHGNRTAAAVAAYLAGGQS
modifications: Synthetic CyPPO10
As to B1, the “Seed germination in media containing herbicides” value (shortened to “Seed germination”) in the experiment on A. thaliana was “germinated”. Further, in the experiment on CyPPO10, the “Activity (%)” value worked out at 93%.

B2: CyPPO10 V305M: CyPPO10 (SEQ ID NO: 2) PPO variant (protein)
chain: MIEVDVAIVGGGLSGLSVAWRLQRSAPHYSGVLLEASDRLGGNITTQAAEGFVWELGPNSFAPTPALLQLIAEVGLHSELIRGDRHLPRYIYWRGELYPLEPTRPLALATSNLLSPWGKVRAALGALGFVPPYLGSGDESVDSFFRRHLGQEVAERLVAPFVSGVYAGDPQQLSAAAAFRRIAQLEKLGGSLIAGALRLRRQQPPQPKPPAQVQMRPGELGSFREGLAALPRAIAQQLKAPLHLQTPVEAITPEPKGGYLLRSGEQTWHARSVVLATPAYQTAELVAPFQPAIARALATIPYPTMACVVLAYPAGLGRSVRPGFGVLVPRGQGIRTLGTIWSSCLFPQRTPAGWQVFTSFIGGATDPDLASLREEAIVEQVQQDLTRLLDLPAAKARLLGMKVWRRAIPQYIVGYPQQWQQVTHALTQTPGLFLCSNYAEGVALGDRVEHGNRTAAAVAAYLAGGQS
modifications: Synthetic CyPPO10
For the molecule B2, in experiment [1], the “Herbicide tolerance level, Acifluorfen (up to 200 μM)” value is recorded as “+++”; the “Herbicide tolerance level, Fomesafen (up to 200 μM)” value is on record as “++++”; the “Herbicide tolerance level, Pentoxazone (up to 200 μM)” value is on record as “++++”; the “Herbicide tolerance level, Pyraclonil (up to 200 μM)” value was “+++”. For the same molecule, in experiment [1], the “Herbicide tolerance level, Pyraflufen-ethyl (up to 200 μM)” value is reported as “+”; the “Herbicide tolerance level, Saflufenacil (up to 200 μM)” value is recorded as “+”; the “Herbicide tolerance level, Tiafenacil (up to 200 μM)” value is given as “++”. In addition, the “Activity (%)” value in the experiment on CyPPO10 is on record as 100%.

B3: CyPPO10 F360I: CyPPO10 (SEQ ID NO: 2) PPO variant (protein)
chain: MIEVDVAIVGGGLSGLSVAWRLQRSAPHYSGVLLEASDRLGGNITTQAAEGFVWELGPNSFAPTPALLQLIAEVGLHSELIRGDRHLPRYIYWRGELYPLEPTRPLALATSNLLSPWGKVRAALGALGFVPPYLGSGDESVDSFFRRHLGQEVAERLVAPFVSGVYAGDPQQLSAAAAFRRIAQLEKLGGSLIAGALRLRRQQPPQPKPPAQVQMRPGELGSFREGLAALPRAIAQQLKAPLHLQTPVEAITPEPKGGYLLRSGEQTWHARSVVLATPAYQTAELVAPFQPAIARALATIPYPTVACVVLAYPAGLGRSVRPGFGVLVPRGQGIRTLGTIWSSCLFPQRTPAGWQVFTSIIGGATDPDLASLREEAIVEQVQQDLTRLLDLPAAKARLLGMKVWRRAIPQYIVGYPQQWQQVTHALTQTPGLFLCSNYAEGVALGDRVEHGNRTAAAVAAYLAGGQS
modifications: Synthetic CyPPO10
As to B3, the “Seed germination” value in the experiment with A. thaliana is reported as “germinated”. Also, the “Activity (%)” value with CyPPO10 was 67%.

B4: CyPPO10 F360C: CyPPO10 (SEQ ID NO: 2) PPO variant (protein)
chain: MIEVDVAIVGGGLSGLSVAWRLQRSAPHYSGVLLEASDRLGGNITTQAAEGFVWELGPNSFAPTPALLQLIAEVGLHSELIRGDRHLPRYIYWRGELYPLEPTRPLALATSNLLSPWGKVRAALGALGFVPPYLGSGDESVDSFFRRHLGQEVAERLVAPFVSGVYAGDPQQLSAAAAFRRIAQLEKLGGSLIAGALRLRRQQPPQPKPPAQVQMRPGELGSFREGLAALPRAIAQQLKAPLHLQTPVEAITPEPKGGYLLRSGEQTWHARSVVLATPAYQTAELVAPFQPAIARALATIPYPTVACVVLAYPAGLGRSVRPGFGVLVPRGQGIRTLGTIWSSCLFPQRTPAGWQVFTSCIGGATDPDLASLREEAIVEQVQQDLTRLLDLPAAKARLLGMKVWRRAIPQYIVGYPQQWQQVTHALTQTPGLFLCSNYAEGVALGDRVEHGNRTAAAVAAYLAGGQS
modifications: Synthetic CyPPO10
With B4, in the experiment on A. thaliana, the “Seed germination” value is recorded as “germinated”.

B5: CyPPO10 F360L: CyPPO10 (SEQ ID NO: 2) PPO variant (protein)
chain: MIEVDVAIVGGGLSGLSVAWRLQRSAPHYSGVLLEASDRLGGNITTQAAEGFVWELGPNSFAPTPALLQLIAEVGLHSELIRGDRHLPRYIYWRGELYPLEPTRPLALATSNLLSPWGKVRAALGALGFVPPYLGSGDESVDSFFRRHLGQEVAERLVAPFVSGVYAGDPQQLSAAAAFRRIAQLEKLGGSLIAGALRLRRQQPPQPKPPAQVQMRPGELGSFREGLAALPRAIAQQLKAPLHLQTPVEAITPEPKGGYLLRSGEQTWHARSVVLATPAYQTAELVAPFQPAIARALATIPYPTVACVVLAYPAGLGRSVRPGFGVLVPRGQGIRTLGTIWSSCLFPQRTPAGWQVFTSLIGGATDPDLASLREEAIVEQVQQDLTRLLDLPAAKARLLGMKVWRRAIPQYIVGYPQQWQQVTHALTQTPGLFLCSNYAEGVALGDRVEHGNRTAAAVAAYLAGGQS
modifications: Synthetic CyPPO10
On to B5, for which, in the experiment on A. thaliana, the “Seed germination” value is recorded as “germinated”. Also, the “Activity (%)” value with CyPPO10 was determined as 59%.

The record behind these values is US11466286B2, “Methods and compositions for conferring and/or enhancing herbicide tolerance using protoporphyrinogen oxidase or variant thereof” (FarmHannong Co., Ltd., priority 2016, dated 2022).
